# Measured values taken from the RNAGym collection of RNA variant scans (doi:10.7554/elife.90254).
# B1: LINE1-mini (parent)
# chain: GGCAGAGCUCAACACAGCGUGGCAAAGUGGCUGUGGCUAGACUGCC
# Variants of: B1
# Assay: self-cleavage, relative activity (ratio to wild type); higher = more cleavage; in vitro, sequencing; the parent is a self-cleaving ribozyme
row,Variant,self-cleavage
1,GGCAGAGCUCAACACAGCGUGGCAAAUUGGCUGUCGCUAGACUGCC,0.09
2,GGCAGAGCUCAACACAGCGUGGCAAAUUGGCUGUUGCUAGACUGCC,0.24
3,GGCAGAGCUCAACACAGCGUGGCAAAGAGGCUGUGGCUAGACUGCG,0.87
4,GGCAGAGCUCAACACAGCGUGGCAAAGAGGCUGUGGCUAGACUGCU,0.66
5,GGCAGAGCUCAACACAGCGUGGCAAAGAGGCUGUGGCUAGACUGCA,1.23
6,GGCAGAGCUCAACACAGCGUGGCAAAGAGUCUGUGGCUAGACUGCC,0.77
7,GGCAGAGCUCAACACAGCGUGGCAAAGAGCCUGUGGCUAGACUGCC,0.62
8,GGCAGAGCUCAACACAGCGUGGCAAAGAGACUGUGGCUAGACUGCC,1.65
9,GGCAGAGCUCAACACAGCGUGGCAAAGAGGCUGUGGCUAGUCUGCC,0.42
10,GGCAGAGCUCAACACAGCGUGGCAAAGAGGCUGUGGCUAGCCUGCC,0.03
11,GGCAGAGCUCAACACAGCGUGGCAAAGAGGCUGUGGCUAGGCUGCC,0.3
12,GGCAGAGCUCAACACAGCGUGGCAAAUUGGCUGUGGCAAGACUGCC,0.39
13,GGCAGAGCUCAACACAGCGUGGCAAAUUGGCUGUGGCCAGACUGCC,0.58
14,GGCAGAGCUCAACACAGCGUGGCAAAUUGGCUGUGGCGAGACUGCC,0.03
15,GGCAGAGCUCAACACAGCGUGGCAAAGCGGGUGUGGCUAGACUGCC,0.16
16,GGCAGAGCUCAACACAGCGUGGCAAAGCGGAUGUGGCUAGACUGCC,0.87
17,GGCAGAGCUCAACACAGCGUGGCAAAGCGGUUGUGGCUAGACUGCC,0.45
18,GGCAGAGCUCAACACAGCGUGGCAAAGAGGCUGUGGCAAGACUGCC,0.38
19,GGCAGAGCUCAACACAGCGUGGCAAAGAGGCUGUGGCCAGACUGCC,0.38
20,GGCAGAGCUCAACACAGCGUGGCAAAGAGGCUGUGGCGAGACUGCC,0.01
21,GGCAGAGCUCAACACAGCGUGGCAAAGCGGCUGUGGCUAGAGUGCC,0.13
22,GGCAGAGCUCAACACAGCGUGGCAAAGCGGCUGUGGCUAGAAUGCC,0.16
23,GGCAGAGCUCAACACAGCGUGGCAAAGCGGCUGUGGCUAGAUUGCC,0.15

row,Variant,self-cleavage
1,GGCAGAGCUCAACACAGCGUGGCAAAGCGGCUGUGGCUAGACUGGC,0.44
2,GGCAGAGCUCAACACAGCGUGGCAAAGCGGCUGUGGCUAGACUGAC,1.7
3,GGCAGAGCUCAACACAGCGUGGCAAAGCGGCUGUGGCUAGACUGUC,1.88
4,GGCAGAGCUCAACACAGCGUGGCAAAGAUGCUGUGGCUAGACUGCC,0.41
5,GGCAGAGCUCAACACAGCGUGGCAAAGAAGCUGUGGCUAGACUGCC,0.6
6,GGCAGAGCUCAACACAGCGUGGCAAAGACGCUGUGGCUAGACUGCC,0.16
7,GGCAGAGCUCAACACAGCGUGGCAAAGCGGCUGUGGCUGGACUGCC,0.09
8,GGCAGAGCUCAACACAGCGUGGCAAAGCGGCUGUGGCUUGACUGCC,1
9,GGCAGAGCUCAACACAGCGUGGCAAAGCGGCUGUGGCUCGACUGCC,0.1
10,GGCAGAGCUCAACACAGCGUGGCAAAGAGGCUGUGGCUAGACUCCC,0.62
11,GGCAGAGCUCAACACAGCGUGGCAAAGAGGCUGUGGCUAGACUACC,0.23
12,GGCAGAGCUCAACACAGCGUGGCAAAGAGGCUGUGGCUAGACUUCC,0.33
13,GGCAGAGCUCAACACAGCGUGGCAAAUAGGCUGUGGCUAGACUGCC,0.34
14,GGCAGAGCUCAACACAGCGUGGCAAAUGGGCUGUGGCUAGACUGCC,1.08
15,GGCAGAGCUCAACACAGCGUGGCAAAUCGGCUGUGGCUAGACUGCC,1.23
16,GGCAGAGCUCAACACAGCGUGGCAAAGCGGCUGUGGGUAGACUGCC,0.01
17,GGCAGAGCUCAACACAGCGUGGCAAAGCGGCUGUGGUUAGACUGCC,0.06
18,GGCAGAGCUCAACACAGCGUGGCAAAGCGGCUGUGGAUAGACUGCC,0.03
19,GGCAGAGCUCAACACAGCGUGGCAAAGCGGCUUUGGCUAGACUGCC,0.08
20,GGCAGAGCUCAACACAGCGUGGCAAAGCGGCUCUGGCUAGACUGCC,0.06
21,GGCAGAGCUCAACACAGCGUGGCAAAGCGGCUAUGGCUAGACUGCC,0.14
22,GGCAGAGCUCAACACAGCGUGGCAAAGAGGCUGUGGCUAGAAUGCC,0.12
23,GGCAGAGCUCAACACAGCGUGGCAAAGAGGCUGUGGCUAGAGUGCC,0.02

row,Variant,self-cleavage
1,GGCAGAGCUCAACACAGCGUGGCAAAGAGGCUGUGGCUAGAUUGCC,0.22
2,GGCAGAGCUCAACACAGCGUGGCAAAUUGGCUGCGGCUAGACUGCC,0.19
3,GGCAGAGCUCAACACAGCGUGGCAAAUUGGCUGGGGCUAGACUGCC,0.26
4,GGCAGAGCUCAACACAGCGUGGCAAAUUGGCUGAGGCUAGACUGCC,0.23
5,GGCAGAGCUCAACACAGCGUGGCAAAGAGGCGGUGGCUAGACUGCC,0.3
6,GGCAGAGCUCAACACAGCGUGGCAAAGAGGCCGUGGCUAGACUGCC,0.18
7,GGCAGAGCUCAACACAGCGUGGCAAAGAGGCUGUGGCUAGACAGCC,0.11
8,GGCAGAGCUCAACACAGCGUGGCAAAGAGGCUGUGGCUAGACCGCC,0.09
9,GGCAGAGCUCAACACAGCGUGGCAAAGAGGCUGUGGCUAGACGGCC,0.03
10,GGCAGAGCUCAACACAGCGUGGCAAAUUGGCUGUGCCUAGACUGCC,0.1
11,GGCAGAGCUCAACACAGCGUGGCAAAUUGGCUGUGACUAGACUGCC,0.4
12,GGCAGAGCUCAACACAGCGUGGCAAAUUGGCUGUGUCUAGACUGCC,0.04
13,GGCAGAGCUCAACACAGCGUGGCAAAGCGGCUGUGGCUAGGCUGCC,0.43
14,GGCAGAGCUCAACACAGCGUGGCAAAGCGGCUGUGGCUAGUCUGCC,0.45
15,GGCAGAGCUCAACACAGCGUGGCAAAGCGGCUGUGGCUAGCCUGCC,0.03
16,GGCAGAGCUCAACACAGCGUGGCAAAUUGGCUGUGGCUAGACUACC,0.43
17,GGCAGAGCUCAACACAGCGUGGCAAAUUGGCUGUGGCUAGACUUCC,0.37
18,GGCAGAGCUCAACACAGCGUGGCAAAUUGGCUGUGGCUAGACUCCC,0.82
19,GGCAGAGCUCAACACAGCGUGGCAAAGAGGCUGUGGCUCGACUGCC,0.15
20,GGCAGAGCUCAACACAGCGUGGCAAAGAGGCUGUGGCUUGACUGCC,0.39
21,GGCAGAGCUCAACACAGCGUGGCAAAGAGGCUGUGGCUGGACUGCC,0.05
22,GGCAGAGCUCAACACAGCGUGGCAAAGAGGCUGGGGCUAGACUGCC,0.11
23,GGCAGAGCUCAACACAGCGUGGCAAAGAGGCUGAGGCUAGACUGCC,0.44

row,Variant,self-cleavage
1,GGCAGAGCUCAACACAGCGUGGCAAAGAGGCUGCGGCUAGACUGCC,0.07
2,GGCAGAGCUCAACACAGCGUGGCAAAGCGGCUGUGGCUAGACUGCA,0.66
3,GGCAGAGCUCAACACAGCGUGGCAAAGCGGCUGUGGCUAGACUGCG,1.68
4,GGCAGAGCUCAACACAGCGUGGCAAAGCGGCUGUGGCUAGACUGCU,0.51
5,GGCAGAGCUCAACACAGCGUGGCAAAUUGGCUGUGGCUAGACAGCC,0.17
6,GGCAGAGCUCAACACAGCGUGGCAAAUUGGCUGUGGCUAGACGGCC,0.11
7,GGCAGAGCUCAACACAGCGUGGCAAAUUGGCUGUGGCUAGACCGCC,0.1
8,GGCAGAGCUCAACACAGCGUGGCAAAUUGGCCGUGGCUAGACUGCC,0.19
9,GGCAGAGCUCAACACAGCGUGGCAAAUUGGCAGUGGCUAGACUGCC,0.07
10,GGCAGAGCUCAACACAGCGUGGCAAAUUGGCGGUGGCUAGACUGCC,0.16
11,GGCAGAGCUCAACACAGCGUGGCAAAGAGGCUGUGGCUAGACUGAC,0.29
12,GGCAGAGCUCAACACAGCGUGGCAAAGAGGCUGUGGCUAGACUGGC,0.24
13,GGCAGAGCUCAACACAGCGUGGCAAAGAGGCUGUGGCUAGACUGUC,1.28
14,GGCAGAGCUCAACACAGCGUGGCAAAGCGGCUGUGGCUAGACUGCC,0.73
15,GGCAGAGCUCAACACAGCGUGGCAAAGAGGCUGUGGCUAGACUGCC,0.71
16,GGCAGAGCUCAACACAGCGUGGCAAAGAGGCUGUGGUUAGACUGCC,0.04
17,GGCAGAGCUCAACACAGCGUGGCAAAGAGGCUGUGGGUAGACUGCC,0.04
18,GGCAGAGCUCAACACAGCGUGGCAAAGAGGCUGUGGAUAGACUGCC,0.04
19,GGCAGAGCUCAACACAGCGUGGCAAAGCGGCUGUAGCUAGACUGCC,0.21
20,GGCAGAGCUCAACACAGCGUGGCAAAGAGGCUCUGGCUAGACUGCC,0.03
21,GGCAGAGCUCAACACAGCGUGGCAAAGAGGCUAUGGCUAGACUGCC,0.06
22,GGCAGAGCUCAACACAGCGUGGCAAAGAGGCUUUGGCUAGACUGCC,0.16
23,GGCAGAGCUCAACACAGCGUGGCAAAGCGACUGUGGCUAGACUGCC,0.96

row,Variant,self-cleavage
1,GGCAGAGCUCAACACAGCGUGGCAAAGCGCCUGUGGCUAGACUGCC,0.64
2,GGCAGAGCUCAACACAGCGUGGCAAAGCGUCUGUGGCUAGACUGCC,0.7
3,GGCAGAGCUCAACACAGCGUGGCAAAGAGGCUGUUGCUAGACUGCC,0.18
4,GGCAGAGCUCAACACAGCGUGGCAAAGAGGCUGUAGCUAGACUGCC,0.15
5,GGCAGAGCUCAACACAGCGUGGCAAAGAGGCUGUCGCUAGACUGCC,0.08
6,GGCAGAGCUCAACACAGCGUGGCAAAGAGGCUGUGCCUAGACUGCC,0.06
7,GGCAGAGCUCAACACAGCGUGGCAAAGAGGCUGUGACUAGACUGCC,0.14
8,GGCAGAGCUCAACACAGCGUGGCAAAGAGGCUGUGUCUAGACUGCC,0.08
9,GGCAGAGCUCAACACAGCGUGGCAAAGAGGCUGUGGCUAAACUGCC,0.1
10,GGCAGAGCUCAACACAGCGUGGCAAAGAGGCUGUGGCUACACUGCC,0.09
11,GGCAGAGCUCAACACAGCGUGGCAAAGAGGCUGUGGCUAUACUGCC,0.12
12,GGCAGAGCUCAACACAGCGUGGCAAAUUGGCUGUGGCUACACUGCC,0.16
13,GGCAGAGCUCAACACAGCGUGGCAAAUUGGCUGUGGCUAUACUGCC,0.13
14,GGCAGAGCUCAACACAGCGUGGCAAAUUGGCUGUGGCUAAACUGCC,0.13
15,GGCAGAGCUCAACACAGCGUGGCAAAGCAGCUGUGGCUAGACUGCC,0.37
16,GGCAGAGCUCAACACAGCGUGGCAAAGCUGCUGUGGCUAGACUGCC,0.77
17,GGCAGAGCUCAACACAGCGUGGCAAAGCCGCUGUGGCUAGACUGCC,1.2
18,GGCAGAGCUCAACACAGCGUGGCAAAGAGGGUGUGGCUAGACUGCC,0.13
19,GGCAGAGCUCAACACAGCGUGGCAAAGAGGUUGUGGCUAGACUGCC,0.54
20,GGCAGAGCUCAACACAGCGUGGCAAAGAGGAUGUGGCUAGACUGCC,0.83
